Data reported in patent US20210130452A1 (Merck KGaA, published 2021).

Legend:
human IL-17A [1] = biological target: T1, human IL-17A (human, UniProt Q16552 24-155); assay: competition ELISA IL17A-RA
T1 construct: secreted form (GenBank U32659) expressed in Hek293 with C-terminal 6-His; also called hIL-17A; IL-17A-6HIS
Protocol: (§1) To this end, IL-17RA, respectively IL-17RC was coated at a concentration of 1 μg/ml in PBS.

marmoset IL-17A = biological target: T2, marmoset IL-17A (marmoset, IL-17A is a disulfide-linked homodimer. One chain is given.); assay: ELISA, coated IL-17A
T2 chain: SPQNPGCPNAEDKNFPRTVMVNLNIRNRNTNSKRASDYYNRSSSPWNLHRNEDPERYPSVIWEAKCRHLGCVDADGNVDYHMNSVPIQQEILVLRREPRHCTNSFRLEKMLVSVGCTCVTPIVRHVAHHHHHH
Protocol: (§2) Binding of a selected panel of anti-IL-17 Nanobodies to IL-17 of other species was assessed using a binding ELISA. […] HRP (horseradish peroxidase) conjugated anti-myc (Serotec, MCA 2200P) was used for detection using esTMB as substrate.

mouse IL-17A = biological target: T3, mouse IL-17A (mouse, UniProt Q62386 26-158); assay: ELISA, coated IL-17A
T3 sequence (looked up): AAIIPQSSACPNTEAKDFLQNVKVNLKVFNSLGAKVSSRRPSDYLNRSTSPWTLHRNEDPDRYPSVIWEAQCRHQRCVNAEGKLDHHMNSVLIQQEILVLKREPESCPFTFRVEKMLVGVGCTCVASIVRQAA
Protocol: as §2

guinea pig IL-17A = guinea pig IL-17A (guinea pig); assay: ELISA, coated IL-17A
Protocol: as §2

rat IL-17A = biological target: T4, rat IL-17A (rat, UniProt Q61453 18-150, limits assumed); assay: ELISA, coated IL-17A
T4 sequence (looked up): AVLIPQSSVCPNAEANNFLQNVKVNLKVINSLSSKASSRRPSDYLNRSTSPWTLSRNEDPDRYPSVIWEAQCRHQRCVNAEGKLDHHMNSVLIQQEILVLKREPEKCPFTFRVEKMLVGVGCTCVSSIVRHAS
Protocol: as §2

human IL-17A [2] = biological target: T1, human IL-17A; assay: ELISA, coated IL-17A
Protocol: as §2

human IL-17F [3] = biological target: T5, human IL-17F (human, UniProt Q96PD4 31-163); assay: KinExA, 500 pM Nanobody
T5 construct: GenBank AF384857, expressed in Hek293 as 6-His C-terminal tagged protein; also called hIL-17F; IL-17F-6HIS
T5 sequence: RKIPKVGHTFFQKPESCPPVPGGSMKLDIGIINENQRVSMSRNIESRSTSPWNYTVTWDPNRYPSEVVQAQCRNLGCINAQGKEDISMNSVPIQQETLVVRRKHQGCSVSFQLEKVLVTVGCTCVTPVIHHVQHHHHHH

human IL-17A [4] = biological target: T1, human IL-17A; assay: KinExA, 500 pM Nanobody
human IL-17A [5] = biological target: T1, human IL-17A; assay: SPR, IL-17A-Nanobody complex over captured IL-17RA
Description: (§3) The receptor (IL-17RA or IL-17RC) was captured via its human Fc-tail by an anti-human IgG-Fc antibody coated on the chip.

human IL-17F [6] = biological target: T5, human IL-17F; assay: competition ELISA IL17F-RC
Protocol: as §1

human IL-17F [7] = biological target: T5, human IL-17F; assay: SPR, IL-17F-Nanobody complex over captured IL-17RC
Description: as §3

rat IL-17F = biological target: T6, rat IL-17F (rat, UniProt Q5BJ95 29-161); assay: ELISA, coated IL-17F;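 further: binding ELISA on coated antigen from various species, with bound Nanobodies revealed by an HRP-linked anti-myc antibody and esTMB substrate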
T6 sequence (looked up): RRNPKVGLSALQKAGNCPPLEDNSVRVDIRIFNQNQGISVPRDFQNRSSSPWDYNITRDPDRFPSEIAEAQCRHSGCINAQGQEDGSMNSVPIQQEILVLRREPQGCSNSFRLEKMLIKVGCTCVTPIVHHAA
Protocol: as §2

marmoset IL-17F = biological target: T7, marmoset IL-17F (marmoset, UniProt A6N6I9 31-163); assay: ELISA, coated IL-17F;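 further: binding ELISA on coated antigen from various species, with bound Nanobodies revealed by an HRP-linked anti-myc antibody and esTMB substrate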
T7 sequence (looked up): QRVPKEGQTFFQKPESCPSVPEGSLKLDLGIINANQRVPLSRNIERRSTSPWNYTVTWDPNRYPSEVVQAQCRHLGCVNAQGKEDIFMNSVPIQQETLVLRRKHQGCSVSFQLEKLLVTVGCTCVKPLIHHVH
Protocol: as §2

mouse IL-17F = biological target: T8, mouse IL-17F (mouse, UniProt Q7TNI7 29-161); assay: ELISA, coated IL-17F;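 further: binding ELISA on coated antigen from various species, with bound Nanobodies revealed by an HRP-linked anti-myc antibody and esTMB substrate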
T8 sequence (looked up): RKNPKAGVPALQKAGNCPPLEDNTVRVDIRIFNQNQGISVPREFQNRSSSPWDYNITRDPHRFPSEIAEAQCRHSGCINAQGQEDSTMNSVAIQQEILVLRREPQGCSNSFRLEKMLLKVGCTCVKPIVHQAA
Protocol: as §2

human IL-17F [8] = biological target: T5, human IL-17F; assay: ELISA, coated IL-17F;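 further: binding ELISA on coated antigen from various species, with bound Nanobodies revealed by an HRP-linked anti-myc antibody and esTMB substrate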
Protocol: as §2

human IL-17F [9] = biological target: T9, human IL-17F (human, UniProt Q96PD4 31-163); assay: method not given
T9 construct: also called hIL-17F; rhIL-17F
T9 sequence: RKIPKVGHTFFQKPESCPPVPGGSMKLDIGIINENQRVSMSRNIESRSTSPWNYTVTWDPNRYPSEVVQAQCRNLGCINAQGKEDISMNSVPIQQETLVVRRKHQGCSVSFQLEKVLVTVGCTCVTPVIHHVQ

human IL-17F [10] = biological target: T5, human IL-17F; assay: KinExA, 100 pM Nanobody
Protocol: The affinity of a limited set of formatted Nanobodies was determined using the KinExA.

human IL-17F [11] = biological target: T10, human IL-17F (human, UniProt Q96PD4 31-163); assay: AlphaScreen IL-17F-IL-17RC; vs IL17MS16A04
T10 construct: made in Hek293 cells (GenBank AF384857); also called hIL-17F; hIL17F
T10 sequence: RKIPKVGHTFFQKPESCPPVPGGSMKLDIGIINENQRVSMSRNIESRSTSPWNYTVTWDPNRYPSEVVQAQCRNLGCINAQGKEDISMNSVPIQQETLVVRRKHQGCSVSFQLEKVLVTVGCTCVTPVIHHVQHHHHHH

[12] = biological target: T11, human IL-17A/F heterodimer (human, UniProt Q16552 24-155; Q96PD4 31-163, limits assumed); assay: SPR (Biacore) off-rate
T11 construct: bought, made in E. coli (R&D Systems 5194-IL/CF); also called hIL-17A/F; hIL17A/F

human IL-17F [13] = biological target: T10, human IL-17F; assay: SPR (Biacore) off-rate

T11 sequence (Q16552 24-155 limits assumed, chain 1 of 2, one chain of several): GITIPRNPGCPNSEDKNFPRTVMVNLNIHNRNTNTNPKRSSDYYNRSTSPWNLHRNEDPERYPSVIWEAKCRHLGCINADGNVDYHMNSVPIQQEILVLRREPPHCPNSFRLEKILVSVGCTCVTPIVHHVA
T1 sequence (Q16552 other isoform, or with tags, fused parts or gaps): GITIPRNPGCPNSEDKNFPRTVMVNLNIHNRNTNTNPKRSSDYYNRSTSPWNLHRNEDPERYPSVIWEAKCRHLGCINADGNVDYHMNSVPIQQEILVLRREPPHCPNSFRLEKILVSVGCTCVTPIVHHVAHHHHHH

Binder	OD (marmoset IL-17A) [OD]	OD (guinea pig IL-17A) [OD]	OD (human IL-17A [2]) [OD]	% Biacore binding (IL-17F-NB)-IL-17RC (human IL-17F [7]) [%]	OD (rat IL-17F) [OD]	OD (marmoset IL-17F) [OD]	OD (mouse IL-17F) [OD]	OD (human IL-17F [8]) [OD]	IC50 fold difference vs WT (human IL-17F [11]) [fold]	koff [12] [s⁻¹]	koff (human IL-17F [13]) [s⁻¹]	further results
13B03 (VHH, Class 4; also called IL17MS13B03) VHH: EVQLVESGGGSVQAGDSLRLSCAASGRANSINWFGWFRQTPGKEREFVAGIRWSDAYTEYANSVKGRFTISRDNAKNTVDLQMDSLKPEDTAVYYCVLDLSTVRYWGQGTQVTVSS	1.94	0.004	1.95	15.7	0.0085	1.33	-0.0005	1.66	–	–	–	IC50 (human IL-17A [1]): 0.121 nM; OD (mouse IL-17A): -0.001 OD; OD (rat IL-17A): 0.004 OD; Kd (human IL-17F [3]): 4.91 nM; Kd (human IL-17A [4]): 0.0225 nM; % Biacore binding (IL-17A-NB)-IL-17RA (human IL-17A [5]): -2.24%; IC50 (human IL-17F [6]): 91.6 nM
13B03 Fc fusion (Fc fusion, also called 13B03 tested as Fc fusion; not shown: hinge and Fc) EVQLVESGGGSVQAGDSLRLSCAASGRANSINWFGWFRQTPGKEREFVAGIRWSDAYTEYANSVKGRFTISRDNAKNTVDLQMDSLKPEDTAVYYCVLDLSTVRYWGQGTQVTVSS	–	–	–	–	–	–	–	–	–	–	–	fold lower affinity on IL-17F than on IL-17A (human IL-17F [9]): ~10 fold
16A04 (VHH, Class 3; also called IL17MS16A04) VHH: EVQLVESGGGLVQAGGSLRLSCAASGRTFSSYVVGWFRQAPGKEREFIGAISGSGDSIYYAVSEKDRFTISRDNGKNTLYLQMSSLKAEDTAVYYCTADQEFGYLRFGRSEYWGQGTQVTVSS	0.019	0.008	0.043	4.84	0.0015	1.64	-0.0015	1.74	–	–	–	Kd (human IL-17F [10]): 0.0194 nM
IL17MS3040 (VHH) VHH: EVQLVESGGGLVQAGGSLRLSCAASGRTFSSYVVGWFRQAPGKEREFIGAISGSGGSIYYAVSEKDRFTISRDNGKNTLYLQMSSLKAEDTAVYYCTADQEFGYLRFGRSEYWGQGTQVTVSS	–	–	–	–	–	–	–	–	9.6	0.00878	0.00148	–
IL17MS3042 (VHH) VHH: EVQLVESGGGLVQAGGSLRLSCAASGRTFSSYVVGWFRQAPGKEREFIGAISGSGDTIYYAVSEKDRFTISRDNGKNTLYLQMSSLKAEDTAVYYCTADQEFGYLRFGRSEYWGQGTQVTVSS	–	–	–	–	–	–	–	–	8.6	0.005	0.00121	–
IL17MS3041 (VHH) VHH: EVQLVESGGGLVQAGGSLRLSCAASGRTFSSYVVGWFRQAPGKEREFIGAISGSGESIYYAVSEKDRFTISRDNGKNTLYLQMSSLKAEDTAVYYCTADQEFGYLRFGRSEYWGQGTQVTVSS	–	–	–	–	–	–	–	–	2.2	0.00427	0.000606	–
